Results on 1 molecule are retold here after PMC11154711 (2024).

Holding throughout (test): BLI
(In general: Biolayer interferometry detects binding as a change in optical thickness at a sensor tip.)

Experiment [1] has as its target T1, OTUB1 V173K (human, UniProt Q96FW1 1-271, V173K).
For experiment [2], the target named is T2, OTUB1 F133A (human, UniProt Q96FW1 1-271, F133A).
Experiment [3] concerns the target T3, OTUB1 V173D (human, UniProt Q96FW1 1-271, V173D).
The target in experiment [4] is T1, OTUB1 V173K. The source holds these as a separate data set.
The target in experiment [5] is T2, OTUB1 F133A. The source holds these as a separate data set.
Experiment [6] deals with T3, OTUB1 V173D. This is another data set of the same source.

B1: Ubc13 (E2 ubiquitin-conjugating enzyme) (enzyme)
chain: MAGLPRRIIKETQRLLAEPVPGIKAEPDESNARYFHVVIAGPQDSPFEGGTFKLELFLPEEYPMAAPKVRFMTKIYHPNVDKLGRICLDILKDKWSPALQIRTVLLSIQALLSAPNPDDPLANDVAEQWKTNEAQAIETARAWTRLYAMNNI
A word on the Kd: it is the constant that tells how readily two partners part at equilibrium. As usually defined, the koff is a measure of how fast the partners let go of each other. The low end stands for slow dissociation, the high end for fast dissociation. In the case of B1, the equilibrium dissociation constant (Kd) with OTUB1 V173K [1] is 1760 nM; with OTUB1 F133A [2], 46.7 µM; in the experiment with OTUB1 V173D [3], 3.02 µM. For the same molecule, the off-rate constant (koff) with OTUB1 V173K [4] was 0.006 s⁻¹; with OTUB1 F133A [5], 0.005 s⁻¹; with OTUB1 V173D [6] it was 0.004 s⁻¹.
